Here are results for five molecules from US20260217833A1 (APTEVO RESEARCH AND DEVELOPMENT, published 2026).

Assay [1] addresses T1, human CD40 full-length (human, UniProt P25942 21-277).
T1 construct: Also used for CD40 of Daudi cells, of CD40-expressing HEK293 cells and of the BPS CD40/NFkB HEK293 reporter cells where the row says so; also called CD4001012; CHOK1SV/CD40
In words: on-cell binding.

The target in assay [2] is T1, human CD40 full-length. Put plainly: flow cytometry, CHOK1SV/human CD40 cells.
Assay [3] addresses T1, human CD40 full-length. Put plainly: flow cytometry, Daudi cells (endogenous CD40).
For assay [4], the target named is T2, Cynomolgus CHOK1SV/CD40.
T2 construct: also called Cyno CD40 full-length; CD4001013
T2 receptor chain: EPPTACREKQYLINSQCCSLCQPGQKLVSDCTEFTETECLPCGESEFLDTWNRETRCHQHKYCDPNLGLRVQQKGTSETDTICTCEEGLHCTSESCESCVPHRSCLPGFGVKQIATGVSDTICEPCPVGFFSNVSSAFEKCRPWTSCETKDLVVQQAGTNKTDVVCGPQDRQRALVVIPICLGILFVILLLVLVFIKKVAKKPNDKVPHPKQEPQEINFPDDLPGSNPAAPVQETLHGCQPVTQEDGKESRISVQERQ
In words: flow cytometry, CHOK1SV/cynomolgus CD40 cells.

Assay [5] concerns the target T3, human CD40 ECD- HAC tag (human).
T3 construct: also called CD4001006; recombinant monomeric human CD40 ectodomain (ECD)
In words: SPR (Biacore T200), bispecific captured on the chip, monovalent CD40 ECD injected.

Assay [6] addresses T4, Human PD-L1 full-length (human, UniProt Q9NZQ7 19-290).
T4 construct: also called PDL01021; CHOK1SV/huPDL1
Put plainly: flow cytometry, CHOK1SV/human PD-L1 cells.

Positions count from the first letter of the chain named.

T4 sequence (Q9NZQ7 19-290): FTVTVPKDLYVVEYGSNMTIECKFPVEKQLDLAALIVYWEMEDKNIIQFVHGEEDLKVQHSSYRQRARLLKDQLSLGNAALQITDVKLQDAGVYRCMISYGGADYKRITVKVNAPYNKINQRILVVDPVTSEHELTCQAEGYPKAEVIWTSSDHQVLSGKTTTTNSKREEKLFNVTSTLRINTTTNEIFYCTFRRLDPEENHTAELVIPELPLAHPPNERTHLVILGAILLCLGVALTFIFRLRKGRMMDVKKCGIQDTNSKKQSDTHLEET

B1: CD4001152 (Fc fusion)
scFv: QIVMTQSPDSLALSLGERATMNCKSSQSLLFSVNQKNYLAWYQQKPGQAPRLLIYWASTRESGVPDRFSGSGSGTDFTLTISRLEPEDVATYYCQHYYSYPWTFGAGTKLEIKGGGGSGGGGSGGGGSGGGGSQVQLVQSGAEVKKPGASVKVSCKASGYTFSTSWIEWVRQAPGQGLEWIGEILPGSGSTNYAQKFQGRATFTADTSTSTAYMELSSLRSEDTAVYYCARGDDGSYVRWYFDVWGQGTTVTVSS
notes: Humanized 1D5 scFv variant, as told of in Fc-scFv format; not shown: the human Fc and any Fc-scFv linker; neither the Fc entry nor the scFv position (N- or C-terminal) is fixed for this construct
B1: the binding result in assay [1] is “no binding”.

B2: CD4001103 (Fc fusion)
scFv: B1 scFv with D9G, S10T, A12S, L15P, N22T, V89A, Q136K, V170I
notes: As m82; not shown: the human Fc (hinge-CH2-CH3) of the scFv-hFc format
As to B2, the binding result in assay [2] is “binds”.

B3: CD4001163 (Fc fusion)
scFv: B1 scFv with L13V, M21I, L110V, I167M, I181M, A201V, F203M, A205R, A212V
notes: As m85; not shown: Fc (hinge-CH2-CH3) and any Fc-scFv linker of the tested fusion
As for B3, the binding result in assay [1] is “no binding”.

B4: PC401144 (bispecific antibody)
chain: DIQMTQSPSSLSASVGDRVTITCRASQDINKFLSWYQQKPGKAPKLLIHYTSSLQSGVPSRFSGSGSGTDFTLTISSLQPEDFATYYCLQYDNLYTFGQGTKLEIKGGGGSGGGGSGGGGSGGGGSEVQLVESGGGLVQPGGSLRLSCAASGFTFSDYGMAWVRQAPGKGLEWVSFITSLAYIIYYADSVKGRFTISRDNAKNSLYLQMNSLRAEDTAVYYCARNYGSSPYYFDYWGQGTLVTVSSEPKSSDKTHTCPPCPAPPAAAPSVFLFPPKPKDTLMISRTPEVTCVVVDVSHEDPEVKFNWYVDGVEVHNAKTKPREEQYNSTYRVVSVLTVLHQDWLNGKEYKCAVSNKALPAPIEKTISKAKGQPREPQVYTLPPSRDELTKNQVSLTCLVKGFYPSDIAVEWESNGQPENNYKTTPPVLDSDGSFFLYSKLTVDKSRWQQGNVFSCSVMHEALHNHYTQKSLSLSPGGGGSPSDIQMTQSPSSVSASVGDRVTITCRASQSLTFSVNQKNYLAWYQQKPGKAPKLLIYWASSLQSGVPSRFSGSGSGTDFTLTISSLQPEDFATYYCQHYYSYPWTFGCGTKVEIKGGGGSGGGGSGGGGSGGGGSQVQLVQSGAEVKKPGSSVKVSCKASGYTFSTSWIEWIRQAPGQCLEWMGSILPGSGSTNYNQKFQGRVTITADTSTSTAYMELSSLRSEDTAVYYCARGDDGSYNRWYFDHWGQGTLVTVSS
For B4, the binding result in assay [3], in assay [4] and in assay [6] was “binds” throughout. This molecule had a Kd in assay [5] of 81 nM. In addition, the koff in assay [5] was determined as 0.00059 s⁻¹. The same molecule came in with a kon in assay [5] of 7300 M⁻¹ s⁻¹.

B5: PC401145 (bispecific antibody)
chain: B4 chain with T512L
For B5, the binding result in assay [3] is listed as “binds”. Besides, in assay [4], the binding result is “binds”. In assay [5], this molecule had a Kd of 81 nM, a koff of 0.00061 s⁻¹ and a kon of 7600 M⁻¹ s⁻¹. For the same molecule, the binding result in assay [6] is “binds”.
